Experimental data reported in the supplement of paper PMC12783771.
± gives the standard deviation of the averaged measurements.

B1: library; a variant is named by its letters at X, in order (parent)
chain: MNIQIGELAKRTACPVVTIRFYEQEGLLPPPGRSRGNFRLYGEEHVERLQFIRHCRSLDMPLSXVRTLLSYRKRPDQDCGEVXMLLDEHXRQVESRIGALLELXHXLVELREACSGARPAQSCGILQGLSDCVCDTRGTTAHXSD

Legend:
[1] = variants of: B1; experiment: sfGFP reporter fluorescence (15 h) (µM FITC); higher = higher leak; details: library round: Round 3b; ligand: none
Description: (§1)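 Cell-free biosensing: 1 µL Echo-assembled CFE reactions with linear PbrR variant templates (5 nM) and pPbrR-sfGFP reporter, with 1 µM Pb, 30 µM Zn or no ligand; endpoint sfGFP fluorescence after 15 h at 30 °C calibrated as µM FITC. Round 3b rational combinatorial PbrR mutants; 3 biological replicates.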

[2] = variants of: B1; experiment: sfGFP reporter fluorescence (15 h) (µM FITC); higher = stronger transcriptional activation; details: library round: Round 3b
Description: as §1

Variant	sfGFP reporter fluorescence [1]	sfGFP reporter fluorescence ([2]; ligand: 1 µM Pb)	sfGFP reporter fluorescence ([2]; ligand: 30 µM Zn)
MNIQIGELAKRTACPVVTIRFYEQEGLLPPPGRSRGNFRLYGEEHVERLQFIRHCRSLDMPLSKVRTLLSYRKRPDQDCGEVIMLLDEHARQVESRIGALLELTHELVELREACSGARPAQSCGILQGLSDCVCDTRGTTAHRSD	0.06373 ± 0.00019	1.25 ± 0.078	0.0603 ± 0.0035
MNIQIGELAKRTACPVVTIRFYEQEGLLPPPGRSRGNFRLYGEEHVERLQFIRHCRSLDMPLSKVRTLLSYRKRPDQDCGEVIMLLDEHARQVESRIGALLELTHELVELREACSGARPAQSCGILQGLSDCVCDTRGTTAHTSD	0.0659 ± 0.0015	1.15 ± 0.065	0.0663 ± 0.0026
MNIQIGELAKRTACPVVTIRFYEQEGLLPPPGRSRGNFRLYGEEHVERLQFIRHCRSLDMPLSDVRTLLSYRKRPDQDCGEVIMLLDEHARQVESRIGALLELVHALVELREACSGARPAQSCGILQGLSDCVCDTRGTTAHRSD	0.0429 ± 0.0036	0.102 ± 0.0042	0.047 ± 0.0015
MNIQIGELAKRTACPVVTIRFYEQEGLLPPPGRSRGNFRLYGEEHVERLQFIRHCRSLDMPLSDVRTLLSYRKRPDQDCGEVIMLLDEHARQVESRIGALLELVHALVELREACSGARPAQSCGILQGLSDCVCDTRGTTAHPSD	0.0451 ± 0.0067	0.0922 ± 0.0043	0.0441 ± 0.0071
MNIQIGELAKRTACPVVTIRFYEQEGLLPPPGRSRGNFRLYGEEHVERLQFIRHCRSLDMPLSDVRTLLSYRKRPDQDCGEVIMLLDEHARQVESRIGALLELVHALVELREACSGARPAQSCGILQGLSDCVCDTRGTTAHTSD	0.0441 ± 0.0047	0.096 ± 0.0083	0.0457 ± 0.0025
MNIQIGELAKRTACPVVTIRFYEQEGLLPPPGRSRGNFRLYGEEHVERLQFIRHCRSLDMPLSKVRTLLSYRKRPDQDCGEVIMLLDEHARQVESRIGALLELTHHLVELREACSGARPAQSCGILQGLSDCVCDTRGTTAHRSD	0.0655 ± 0.0015	1.19 ± 0.2	0.0963 ± 0.013
MNIQIGELAKRTACPVVTIRFYEQEGLLPPPGRSRGNFRLYGEEHVERLQFIRHCRSLDMPLSKVRTLLSYRKRPDQDCGEVIMLLDEHARQVESRIGALLELTHHLVELREACSGARPAQSCGILQGLSDCVCDTRGTTAHPSD	0.07594 ± 0.00067	1.34 ± 0.049	0.0972 ± 0.014
MNIQIGELAKRTACPVVTIRFYEQEGLLPPPGRSRGNFRLYGEEHVERLQFIRHCRSLDMPLSKVRTLLSYRKRPDQDCGEVIMLLDEHARQVESRIGALLELTHHLVELREACSGARPAQSCGILQGLSDCVCDTRGTTAHTSD	0.0743 ± 0.0012	1.3 ± 0.031	0.112 ± 0.0078
MNIQIGELAKRTACPVVTIRFYEQEGLLPPPGRSRGNFRLYGEEHVERLQFIRHCRSLDMPLSKVRTLLSYRKRPDQDCGEVIMLLDEHARQVESRIGALLELVHALVELREACSGARPAQSCGILQGLSDCVCDTRGTTAHRSD	0.0586 ± 0.0045	1.08 ± 0.06	0.0523 ± 0.0046
MNIQIGELAKRTACPVVTIRFYEQEGLLPPPGRSRGNFRLYGEEHVERLQFIRHCRSLDMPLSKVRTLLSYRKRPDQDCGEVIMLLDEHARQVESRIGALLELVHALVELREACSGARPAQSCGILQGLSDCVCDTRGTTAHPSD	0.0556 ± 0.001	0.772 ± 0.15	0.0487 ± 0.0065
MNIQIGELAKRTACPVVTIRFYEQEGLLPPPGRSRGNFRLYGEEHVERLQFIRHCRSLDMPLSDVRTLLSYRKRPDQDCGEVIMLLDEHARQVESRIGALLELTHHLVELREACSGARPAQSCGILQGLSDCVCDTRGTTAHTSD	0.0414 ± 0.0019	0.103 ± 0.0068	0.0451 ± 0.0014
MNIQIGELAKRTACPVVTIRFYEQEGLLPPPGRSRGNFRLYGEEHVERLQFIRHCRSLDMPLSDVRTLLSYRKRPDQDCGEVIMLLDEHARQVESRIGALLELTHHLVELREACSGARPAQSCGILQGLSDCVCDTRGTTAHRSD	0.0464 ± 0.003	0.0989 ± 0.0066	0.0456 ± 0.0036
MNIQIGELAKRTACPVVTIRFYEQEGLLPPPGRSRGNFRLYGEEHVERLQFIRHCRSLDMPLSDVRTLLSYRKRPDQDCGEVIMLLDEHARQVESRIGALLELTHELVELREACSGARPAQSCGILQGLSDCVCDTRGTTAHRSD	0.0429 ± 0.0012	0.0627 ± 0.0026	0.0413 ± 0.00067
MNIQIGELAKRTACPVVTIRFYEQEGLLPPPGRSRGNFRLYGEEHVERLQFIRHCRSLDMPLSDVRTLLSYRKRPDQDCGEVIMLLDEHARQVESRIGALLELTHELVELREACSGARPAQSCGILQGLSDCVCDTRGTTAHTSD	0.0419 ± 0.0022	0.0628 ± 0.00089	0.0452 ± 0.0012
